# B1: proBCCP2 AW-box cold probe (dsDNA)
# DNA 1: TACTTCCTCGGTTTCATCGTCCAC
# DNA 2: GTGGACGATGAAACCGAGGAAGTA
# B2: proBCCP2 AW-box probe (dsDNA)
# DNA 1: TACTTCCTCGGTTTCATCGTCCAC
# DNA 2: GTGGACGATGAAACCGAGGAAGTA
# Key:
# [1] = target: T1, His-HaWRI1(52-234), AP2 domain (Helianthus annuus, UniProt A0A251SM13 52-234); assay: competition; 10x to 60x unlabeled probe against biotin-labeled N1 (EMSA); EMSA: 15 mM HEPES-KOH pH 7.5, 7.5 mM KCl, 0.5 mM EDTA, 5% glycerol, 2 mM DTT, 1 ug/uL BSA, 0.05 ug/uL poly(dI-dC), 20 uL, on ice 30 min; 5% native PAGE; conditions: protein: recombinant; tags: 6xHis (pET41a-6xHis vector); label: none
# T1 sequence (A0A251SM13 entry or part of it): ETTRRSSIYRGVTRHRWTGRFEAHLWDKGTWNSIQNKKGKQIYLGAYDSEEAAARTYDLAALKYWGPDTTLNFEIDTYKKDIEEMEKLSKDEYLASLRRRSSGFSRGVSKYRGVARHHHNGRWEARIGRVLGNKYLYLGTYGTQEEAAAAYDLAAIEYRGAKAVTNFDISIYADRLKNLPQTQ
# [2] = target: T1, His-HaWRI1(52-234), AP2 domain; assay: EMSA; poly(dI-dC) 0.05 ug/uL; 280 ng protein; 2 fmol/uL probe; EMSA: 15 mM HEPES-KOH pH 7.5, 7.5 mM KCl, 0.5 mM EDTA, 5% glycerol, 2 mM DTT, 1 ug/uL BSA, 0.05 ug/uL poly(dI-dC), 20 uL, on ice 30 min; 5% native PAGE; conditions: protein: recombinant; tags: 6xHis (pET41a-6xHis vector); label: 5' biotin
Binder,binding result [1],binding result [2]
B1,binds,–
B2,–,binds

# — article PMC8951541, “Sunflower WRINKLED1 Plays a Key Role in Transcriptional Regulation of Oil Biosynthesis”
